The nature of this data set: yeast display, Sf9 membrane polyspecificity reagent, FACS + sequencing; frameworks hold sequencing errors. The gist of the method: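 Nanobodies came from a synthetic yeast display library in Saccharomyces cerevisiae BJ5465, induced with galactose for 36–48 hours and stained for 1 hour at 4 °C with 10% biotinylated, detergent-solubilized Sf9 membrane reagent. Cells were enriched on streptavidin microbeads and then FACS-sorted, with low and high (top ~1%) gates set on anti-HA fluorescence for expression and streptavidin fluorescence for reagent binding. Each polyreactivity label reflects the gate a clone came from. Genes were amplified by colony PCR, sequenced by MiSeq 2 × 250 and filtered by CDR length.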
“QEQLQDSGGGLVQAGGSLRLSCAASGYISSLAAMGWYRQAPGKERDLVAGNDLGTITNYADSVKGRLTISRDNAKNNVYLQMNSLKPEDTEVYYCAKYRWYGVYWGQGTHVTVSS”: the “polyreactivity (PSR sort gate)” value is listed as “low polyreactivity”.

Consider “QEQLQESAGGLVQACGSQRLSCAASGSISEGQDMGSYRRAPGKEREFVAGIAPGATTYYADSVKGRFTISRDNAKKTVYRQMNSLKAEDTAVYYCAARSVTETDHDYWGQGTQVTVSS”, for which the “polyreactivity (PSR sort gate)” value is reported as “low polyreactivity”. As for “QEQLQESGGGLVHAGGSLRLSCAASGSISQAWYMGWYRQAPGKERELVAAINGGAITYYADSVKGRFSISRDNAKNTVYLPMNSLTPEDTAVYYCAVDQYSEAYYDYWGQGTQATVSS”, the “polyreactivity (PSR sort gate)” value was “high polyreactivity”. Under “QEQLQESGGGLVKAGGSLRLSCAASGNISNHNDMGWYRQAPGKEREFVAGITAGGITNYADSVKGRFTISRDNAKNTVYLQMNSLKPEDTAVYYCAAYPDYAKSYGYWGQGTQATVSS” stands “low polyreactivity”; under “QEQLQESGGGLVQAGGSLRLSCAASGTITVLYKMGWFRQAPGKEREFVASINYGTSTYYADSVKGRFTVSRDSAKNTVYLQMNSLKPEDTAVYYCAAAYRWQDVYRYWGQGTQVTVSS”, “low polyreactivity”. Regarding “QEQLQESGGGQVQAGGSLLLSCAASGNIIRYYYMGWYRQAPGKERELVAAITYGTSTNYADSVKGRFTISRDNAINTVYLQMNSLKPEDTAVYYCAVDVNYGDPLDNWGQGTQVTVSS”, the “polyreactivity (PSR sort gate)” value is reported as “high polyreactivity”. Under “QEQLVESGGGLVQAGGSLRLSCAASGFIFPGYTMGWYRQAPGKERELVAAISRGSSTFYADSVKGRFTISRDNAKNTVYLQMNSLKPEDTAFYYCNTRVYAITLYDYWGQGTQVTVSS” stands “low polyreactivity”; under “QEQLVESVGGLVQARGSLRLSGAASGYTFKYNALGWYRPAPGKERELVAAITSGGSTNYADSVKGRFTISRDNAKNTVYLQMNSLKPEDTAVYYCAAAQPRTNAYRVGSWGQGTQVTVSS”, “high polyreactivity”; under “QEQQQESGGGLVQAGGSLRLSCSSSGSIILFYTMGWYRHAPVKERECVAGITLGTTTYNADSVKGRFTISRDNVKISVYLQMNSLKPEDTAVDYCAVAVGHYTEFWYWGQGTQVTMSS”, “high polyreactivity”. On to “QFHHVESGGGLVQAGCSLRLSCGASGLTSAIYVMGLYRQAPGKEREFVADITWNAGSTYYADSVQGRFTISRDNAKNTVYVEMKSLKPEDTAVYYCNAYIVSGFYEYDFWGQGTQVTVSS”, for which the “polyreactivity (PSR sort gate)” value was “high polyreactivity”. For the sequence “QFHLLESGGRLDQAGGSLRLSCAASGIIFRGNAMGWYIQAPGKERELVAAISSGGSTYYADTVKGSFTISRDNAKNTVYLKMNCLKPEDTAVYYCNARWYFWGTLYGSWGQGTQVTVSS”, the “polyreactivity (PSR sort gate)” value is reported as “high polyreactivity”. On to “QFHLVDSGGGLVQAGGRLRLSCPASGGICYQYAMGWYRQAPGKEREFVAAISRRGGSTYYADSVKGRFTISRDNAKNTVYLQMNSLKPEDTAVYYCAAAPSTRGGYQQMDSWGQGTQVTVSS”, for which the “polyreactivity (PSR sort gate)” value was “high polyreactivity”. Turning to “QFHLVESGGGLVQAGGSLRLSCSASGLTFYQNSLGWSRQAPGKEMELVAAIRWGGGSTYYADSVKGRFTISRDNAKNTVYLQMNCLKPVDTAVYYCAAEYYGWPYDYWGQGTQVTVSS”, the “polyreactivity (PSR sort gate)” value is on record as “high polyreactivity”. In the case of “QFHLVESGRGLVQAGGSLRLSCAASGRIFCVNAMGWYRQAPGKERELVADISSGGSTNYADSVKGRFTISRDNAKNTVYLQMNSLKPEDTAFYYCNARFRFRYKFPSRNSWGQGTLVTVSS” it was “high polyreactivity”. Under “QFQHVESGGCLVQAGGSLRLSSAASGYMFYWYDMGWYRQAPGKERELVAVITSSGLSTYYADSVKGRFTISRDNAKNTVYLQMNSLKPEDTAVYYCNKANTQYSYYFYDYWGQGTQVTVSS” stands “low polyreactivity”. For “QFQIVDSVRGLVQAGGSLRLSCAASGITFDFYAIGWYRQAPGKERELVAAISYSGTSTSYADSVKGRFTISRDNAKNTVYLQMNSLKAEDTAVYYCNARIGWTHSYYELDYWGQGTQVTVSS”, the “polyreactivity (PSR sort gate)” value is “low polyreactivity”.
